# Measured values as given in PMC6804253, “Predicting and Experimentally Validating Hot-Spot Residues at Protein–Protein Interfaces” (ACS Chemical Biology, 2019).
# Where a chain is given by its changes, count along the chain named.
# B1: 1EMV TA44A (protein, UniProt P13479 1-86, looked up, variant T44A)
# Colicin-E9 immunity protein: MELKHSISDYTEAEFLQLVTTICNADTSSEEELVKLVTHFEEMAEHPSGSDLIYYPKEGDDDSPSGIVNTVKQWRAANGKSGFKQG
# B2: 1EMV SA63A (protein, UniProt P13479 1-86, looked up, variant S63A)
# Colicin-E9 immunity protein: B1 Colicin-E9 immunity protein with A44T, S63A
# B3: 1EMV SA48A (protein, UniProt P13479 1-86, looked up, variant S48A)
# Colicin-E9 immunity protein: B1 Colicin-E9 immunity protein with A44T, S48A
# B4: 1EMV NA69A (protein, UniProt P13479 1-86, looked up, variant N69A)
# Colicin-E9 immunity protein: B1 Colicin-E9 immunity protein with A44T, N69A
# B5: 1EMV SA50A (protein, UniProt P13479 1-86, looked up, variant S50A)
# Colicin-E9 immunity protein: B1 Colicin-E9 immunity protein with A44T, S50A
# B6: 2WPT SA50A (protein, UniProt P04482 1-86, looked up, variant S50A)
# Colicin-E2 immunity protein: MELKHSISDYTEAEFLEFVKKICRAEGATEEDDNKLVREFERLTEHPDGADLIYYPRDDREDSPEGIVKEIKEWRAANGKSGFKQG
# B7: 1AHW DC178A (protein, UniProt P13726 33-251, looked up, variant D178A)
# extracellular domain: SGTTNTVAAYNLTWKSTNFKTILEWEPKPVNQVYTVQISTKSGDWKSKCFYTTDTECDLTDEIVKDVKQTYLARVFSYPAGNVESTGSAGEPLYENSPEFTPYLETNLGQPTIQSFEQVGTKVNVTVEDERTLVRRNNTFLSLRDVFGKDLIYTLYYWKSSSSGKKTAKTNTNEFLIAVDKGENYCFSVQAVIPSRTVNRKSTDSPVECMGQEKGEFRE
# modifications: extracellular domain
# B8: 1DAN KT28A (protein, UniProt P13726 33-251, looked up, variant K28A)
# extracellular domain: B7 extracellular domain with K28A, A178D
# modifications: extracellular domain
# B9: 1DAN KT15A (protein, UniProt P13726 33-251, looked up, variant K15A)
# extracellular domain: B7 extracellular domain with K15A, A178D
# modifications: extracellular domain
# B10: 1DAN KT20A (protein, UniProt P13726 33-251, looked up, variant K20A)
# extracellular domain: B7 extracellular domain with K20A, A178D
# modifications: extracellular domain
# B11: 1DAN ET24A (protein, UniProt P13726 33-251, looked up, variant E24A)
# extracellular domain: B7 extracellular domain with E24A, A178D
# modifications: extracellular domain
# B12: 1DAN ET26A (protein, UniProt P13726 33-251, looked up, variant E26A)
# extracellular domain: B7 extracellular domain with E26A, A178D
# modifications: extracellular domain
# Test system: PPIs of the SKEMPI data set (by PDBID)
# Assay: SKEMPI experimental ΔΔG, single mutations to alanine
# Type: binding
# Conditions: class of the SKEMPI experimental ΔΔG
row,Molecule,sk_class
1,B1,Neutral (neutral (little effect) 4.184 kJ/mol < ΔΔG > −4.184 kJ/mol)
2,B2,Neutral (neutral (little effect) 4.184 kJ/mol < ΔΔG > −4.184 kJ/mol)
3,B3,Neutral (neutral (little effect) 4.184 kJ/mol < ΔΔG > −4.184 kJ/mol)
4,B4,Neutral (neutral (little effect) 4.184 kJ/mol < ΔΔG > −4.184 kJ/mol)
5,B5,Positive (positive (a hot residue) ΔΔG ≥ 4.184 kJ/mol)

# Same assay, conditions: class of the SKEMPI experimental ΔΔG; ref SKEMPI
row,Molecule,sk_class
1,B6,Positive (positive (a hot residue) ΔΔG ≥ 4.184 kJ/mol)
2,B7,Neutral (neutral (little effect) 4.184 kJ/mol < ΔΔG > −4.184 kJ/mol)
3,B8,Neutral (neutral (little effect) 4.184 kJ/mol < ΔΔG > −4.184 kJ/mol)
4,B9,Neutral (neutral (little effect) 4.184 kJ/mol < ΔΔG > −4.184 kJ/mol)
5,B10,Positive (positive (a hot residue) ΔΔG ≥ 4.184 kJ/mol)
6,B11,Neutral (neutral (little effect) 4.184 kJ/mol < ΔΔG > −4.184 kJ/mol)
7,B12,Neutral (neutral (little effect) 4.184 kJ/mol < ΔΔG > −4.184 kJ/mol)

# Test system: PPIs of the SKEMPI data set (by PDBID)
# Assay: not given
# Conditions: SKEMPI experimental ΔΔG of binding, single mutation to alanine; complex by PDBID; ref SKEMPI; cited from earlier work
row,Molecule,sk_ddG_kJ [kJ]
1,B7,-2.01
2,B8,0.50
3,B9,-1.63
4,B10,10.21
5,B11,2.76
6,B12,0.46

# Same assay, conditions: single mutation to alanine; complex given by PDBID, chain and residue by mut_pdb; ref SKEMPI; cited from earlier work
row,Molecule,"sk_ddG_kJ (SKEMPI experimental ΔΔG, mutation to alanine) [kJ]"
1,B6,10.04

# Same assay, conditions: single mutation to alanine; complex given by PDBID; residue group SQNT; ref SKEMPI; cited from earlier work
row,Molecule,sk_ddG_kJ (SKEMPI experimental ΔΔG) [kJ]
1,B1,1.26
2,B2,3.64
3,B3,0.04
4,B4,1.17
5,B5,9.16
